B1: POU domain, class 4, transcription factor 2, residues 256 to 327; numbered along this chain, Q12837 (parent)
chain: RDLEAFAERFKQRRIKLGVTQADVGSALANLKIPGVGSLSQSTICRFESLTLSHNNMIALKPILQAWLEEAE

Here are results for 38 variants from the Human Domainome abundance scans (Beltran et al. 2025).

± gives the uncertainty stated by the source.

In the data set the parent is B1. In words: abundance fitness (aPCA) (normalised: wild type 0, dead -1); higher = more abundant; growth selection in yeast, the domain comes from the species named. As to conditions: Homo sapiens.
On to RDLEAFAERFKQRRIKLGVTQADVGSALANLKIPGVGSLSQSTICRFSSLTLSHNNMIALKPILQAWLEEAE [E48S], for which the abundance fitness was -0.644 ± 0.11.
Then RDLEAFAERFKQRRIKLGVTQADVGSALANLKIPGVGSLSQSTICRFPSLTLSHNNMIALKPILQAWLEEAE [E48P], with -0.889 ± 0.17; and RDLEAFAERFKQRRIKLGVTQADVGSALANLKIPGVGSLSQSTICRFHSLTLSHNNMIALKPILQAWLEEAE [E48H], with -0.818 ± 0.36.
Then RDLEAFAERFKQRRIKLGVTQADVGSALANLKIPGVGSLSQSTICRFLSLTLSHNNMIALKPILQAWLEEAE [E48L], with -0.93 ± 0.17.
With RDLEAFAERFKQRRIKLGVTQADVGSALANLKIPGVGSLSQSTICRFQSLTLSHNNMIALKPILQAWLEEAE [E48Q] the figure was -0.833 ± 0.15.
For the variant RDLEAFAERFKQRRIKLGVTQADVGSALANLKIPGVGSLSQSTICRFWSLTLSHNNMIALKPILQAWLEEAE [E48W], the abundance fitness is -1.09 ± 0.24.
Then RDLEAFAERFKQRRIKLGVTQADVGSALANLKIPGVGSLSQSTICRFVSLTLSHNNMIALKPILQAWLEEAE [E48V], with -1.17 ± 0.26.
With RDLEAFAERFKQRRIKLGVTQADVGSALANLKIPGVGSLSQSTICRFRSLTLSHNNMIALKPILQAWLEEAE [E48R] the figure was -0.463 ± 0.071.
With RDLEAFAERFKQRRIKLGVTQADVGSALANLKIPGVGSLSQSTICRFESDTLSHNNMIALKPILQAWLEEAE [L50D] the figure was -0.196 ± 0.13; with RDLEAFAERFKQRRIKLGVTQADVGSALANLKIPGVGSLSQSTICRFESPTLSHNNMIALKPILQAWLEEAE [L50P], -0.867 ± 0.12.
Consider RDLEAFAERFKQRRIKLGVTQADVGSALANLKIPGVGSLSQSTICRFESTTLSHNNMIALKPILQAWLEEAE [L50T], for which the abundance fitness is -0.147 ± 0.094.
With RDLEAFAERFKQRRIKLGVTQADVGSALANLKIPGVGSLSQSTICRFESCTLSHNNMIALKPILQAWLEEAE [L50C] the figure was -0.029 ± 0.069; with RDLEAFAERFKQRRIKLGVTQADVGSALANLKIPGVGSLSQSTICRFESATLSHNNMIALKPILQAWLEEAE [L50A], 0.005 ± 0.061.
Then RDLEAFAERFKQRRIKLGVTQADVGSALANLKIPGVGSLSQSTICRFESETLSHNNMIALKPILQAWLEEAE [L50E], with -0.322 ± 0.24; and RDLEAFAERFKQRRIKLGVTQADVGSALANLKIPGVGSLSQSTICRFESITLSHNNMIALKPILQAWLEEAE [L50I], with -0.361 ± 0.18.
With RDLEAFAERFKQRRIKLGVTQADVGSALANLKIPGVGSLSQSTICRFESGTLSHNNMIALKPILQAWLEEAE [L50G] the figure was 0.06 ± 0.046; with RDLEAFAERFKQRRIKLGVTQADVGSALANLKIPGVGSLSQSTICRFESHTLSHNNMIALKPILQAWLEEAE [L50H], -0.057 ± 0.081.
Take RDLEAFAERFKQRRIKLGVTQADVGSALANLKIPGVGSLSQSTICRFESKTLSHNNMIALKPILQAWLEEAE [L50K]: the abundance fitness was -0.128 ± 0.25.
With RDLEAFAERFKQRRIKLGVTQADVGSALANLKIPGVGSLSQSTICRFESFTLSHNNMIALKPILQAWLEEAE [L50F] the figure was -0.088 ± 0.11; with RDLEAFAERFKQRRIKLGVTQADVGSALANLKIPGVGSLSQSTICRFESMTLSHNNMIALKPILQAWLEEAE [L50M], -0.003 ± 0.15; with RDLEAFAERFKQRRIKLGVTQADVGSALANLKIPGVGSLSQSTICRFESRTLSHNNMIALKPILQAWLEEAE [L50R], -0.077 ± 0.055.
Then RDLEAFAERFKQRRIKLGVTQADVGSALANLKIPGVGSLSQSTICRFESSTLSHNNMIALKPILQAWLEEAE [L50S], with 0.012 ± 0.066; and RDLEAFAERFKQRRIKLGVTQADVGSALANLKIPGVGSLSQSTICRFESNTLSHNNMIALKPILQAWLEEAE [L50N], with 0.161 ± 0.076; and RDLEAFAERFKQRRIKLGVTQADVGSALANLKIPGVGSLSQSTICRFEELTLSHNNMIALKPILQAWLEEAE [S49E], with 0.134 ± 0.14.
Then RDLEAFAERFKQRRIKLGVTQADVGSALANLKIPGVGSLSQSTICRFEDLTLSHNNMIALKPILQAWLEEAE [S49D], with -0.106 ± 0.17.
On to RDLEAFAERFKQRRIKLGVTQADVGSALANLKIPGVGSLSQSTICRFEHLTLSHNNMIALKPILQAWLEEAE [S49H], for which the abundance fitness is -0.587 ± 0.3.
Then RDLEAFAERFKQRRIKLGVTQADVGSALANLKIPGVGSLSQSTICRFEMLTLSHNNMIALKPILQAWLEEAE [S49M], with -0.492 ± 0.36.
As for RDLEAFAERFKQRRIKLGVTQADVGSALANLKIPGVGSLSQSTICRFENLTLSHNNMIALKPILQAWLEEAE [S49N], the abundance fitness was -0.065 ± 0.19.
With RDLEAFAERFKQRRIKLGVTQADVGSALANLKIPGVGSLSQSTICRFEWLTLSHNNMIALKPILQAWLEEAE [S49W] the figure was -0.485 ± 0.22.
Turning to RDLEAFAERFKQRRIKLGVTQADVGSALANLKIPGVGSLSQSTICRFELLTLSHNNMIALKPILQAWLEEAE [S49L], the abundance fitness was -0.297 ± 0.056.
With RDLEAFAERFKQRRIKLGVTQADVGSALANLKIPGVGSLSQSTICRFETLTLSHNNMIALKPILQAWLEEAE [S49T] the figure was -0.035 ± 0.12.
In the case of RDLEAFAERFKQRRIKLGVTQADVGSALANLKIPGVGSLSQSTICRFEGLTLSHNNMIALKPILQAWLEEAE [S49G], the abundance fitness came out at 0.055 ± 0.093.
Turning to RDLEAFAERFKQRRIKLGVTQADVGSALANLKIPGVGSLSQSTICRFEFLTLSHNNMIALKPILQAWLEEAE [S49F], the abundance fitness was -0.651 ± 0.24.
Then RDLEAFAERFKQRRIKLGVTQADVGSALANLKIPGVGSLSQSTICRFEKLTLSHNNMIALKPILQAWLEEAE [S49K], with 0.069 ± 0.3; and RDLEAFAERFKQRRIKLGVTQADVGSALANLKIPGVGSLSQSTICRFERLTLSHNNMIALKPILQAWLEEAE [S49R], with 0.032 ± 0.07.
With RDLEAFAERFKQRRIKLGVTQADVGSALANLKIPGVGSLSQSTICRFECLTLSHNNMIALKPILQAWLEEAE [S49C], the abundance fitness is -0.245 ± 0.14.
Regarding RDLEAFAERFKQRRIKLGVTQADVGSALANLKIPGVGSLSQSTICRFEILTLSHNNMIALKPILQAWLEEAE [S49I], the abundance fitness was -1.03 ± 0.46.
Then RDLEAFAERFKQRRIKLGVTQADVGSALANLKIPGVGSLSQSTICRFEPLTLSHNNMIALKPILQAWLEEAE [S49P], with -0.537 ± 0.099.
